Legend:
[1] = test system: hippocampal culture neurons; experiment: Cal-Light test in dissociated hippocampal culture neurons (EGFP reporter); type: cell-based, rat
[2] = test system: cortical slice culture; experiment: Cal-Light test in cortical slice culture (EGFP reporter); type: cell-based; settings: further increase of neuronal activity by bicuculine application
Description: FIG. 18. Cal-Light test in cortical slice culture. AAV expressing Cal-Light constructs and EGFP reporter were infected to cortical slice culture at DIV3 (Days in vitro). […] Examples of action potentials were plotted at the top left panel. Electrical stimulation reliably triggered action potentials measured in layer 2/3 pyramidal neurons. Two days later, slices were fixed and images were taken by confocal microscopy. […] Blue light or high frequency stimuli alone was not able to increase the level of EGFP expression.
[…] Cortical slice culture were made at postnatal day 3 and AAV expressing Cal-Light constructs including an EGFP reporter were infected to slices at DIV 3 (Days in vitro). After 12 days of expression, a bipolar stimulation electrode was placed in layer 2/3. […] This stimulation protocol was repeated 30 times, resulting in triggering about 300 action potentials in total. Two days later, slices were fixed and gene expression pattern was imaged by confocal microscopy.

[3] = test system: HEK293T cells; experiment: SEAP chemiluminescent assay of BLITz constructs, light-induced gene expression; type: cell-based; settings: for light-induced gene expression: blue light; for background (baseline) gene expression level: dark state
Description: HEK293T cells were grown in high glucose Dulbecco's Modified Eagle Medium (DMEM) (Gibco, CA, USA) containing 10% fetal bovine serum (Cat #10438-018, Gibco) and 1% penicillin-streptomycin (Invitrogen, NY, USA). Cells were incubated at 37° C. and under 10% CO2 conditions. For the experiment, all dishes and coverslip were pre-coated with a 1 mg/ml Poly-D-Lysine hydrobromide (Cat #P0899, Sigma-Aldrich, St. Louis, Mo., USA) solution for 2 hrs. After 0.25% trypsin (Cat #25200, Gibco) treatment for 2 min, detached cells were collected and the total cell numbers were counted. Dissociated cells were plated at 2×10^5 cells per 12 mm coverslip. 24 hrs later, DNA plasmid vectors were transfected using the calcium phosphate transfection kit (Clontech, CA, USA). The mixture of the DNA solution was slowly added into 2× Hepes Buffered Saline. After 1 hr incubation, precipitated solutions were added into each well.
Blue light was illuminated by 465 nm wavelength blue LED array (LED wholesalers, Hayward, Calif., USA) that was controlled by a high-accuracy digital electronic timer (Model 451, GraLab, Centerville, Ohio, USA). The LED array was installed inside the 37° C. and 10% CO2 incubator. One transparent blank plate with 2 cm height was inserted between the LED source and the sample to inhibit potential undesirable heating caused by the direct contact of the LED. In the experimental setup, the power of blue light at the specimen was 1.7 mW, measured by a power meter (PM100D, ThorLabs, Newton, N.J., USA). To make a dark condition, all lights were prevented by wrapping culture plates with an aluminum foil, and all experimental procedures were carried out under dim red light.
For the quantification of gene-expression levels, a secreted embryonic alkaline phosphatase (SEAP) chemiluminescent assay was used. All reagents for the SEAP assay were purchased from InvivoGen (San Diego, Calif., USA). 40 μl of sample was collected from the medium of each well and transferred into 96-wells plate. Samples were pre-heated in a 60° C. incubator for 10 m to inhibit the activity of endogenous alkaline phosphatase. All mixtures were added into a single master tube including SEAP substrates and L-homoarginine. The mixed solutions were carefully added into each sample onto 96-wells plate without bubbles. The chemiluminescence of each sample was measured by a micro-plate reader (SpectraMax Plus 384, Molecular Devices, Sunnyvale, Calif., USA) at 37° C. at 405 nm. Assays were made at every 30 s for 2 hrs. All data and the calculation of Vmax were acquired by a SoftMax Pro 5.4.1 (Molecular Devices).
Thus, to prevent access by TEV protease in the dark state, but to allow complete access upon blue light illumination, the C-terminal region of the Jα-helix on AsLOV2 with the TEVseq was modified (FIG. 1a, b). […]

[4] = test system: HEK293T cells; experiment: EGFP expression reporter assay of BLITz constructs; type: cell-based; settings: dark vs blue light
Description: FIG. 1: Development of BLITz system. (a) Schematic drawing of BLITz proteins and simple diagram of light-induced gene expression. The major protein body, TM-CIBN-TEV-N-AsLOV2-TEVseq-TetR-VP16 (tTA), is targeted to a membrane with a transmembrane domain (TM). CRY2PHR-TEV-C is localized in the cytosol. Blue light causes interaction of CRY2PHR with CIBN, and TEV-C and TEV-N subsequently interact with each other. At the same time, TEVseq is unmasked due to conformational changes of AsLOV2 Jα-helix. When these two light-dependent processes are satisfied, TEVseq cleaves TetR-VP16, which translocates to the nucleus and causes targeted gene expression. (b) Design of TEVseq insertion into Jα-helix. […]
HEK293T cells were grown in high glucose Dulbecco's Modified Eagle Medium (DMEM) (Gibco, CA, USA) containing 10% fetal bovine serum (Cat #10438-018, Gibco) and 1% penicillin-streptomycin (Invitrogen, NY, USA). […] After 0.25% trypsin (Cat #25200, Gibco) treatment for 2 min, detached cells were collected and the total cell numbers were counted. […]
Blue light was illuminated by 465 nm wavelength blue LED array (LED wholesalers, Hayward, Calif., USA) that was controlled by a high-accuracy digital electronic timer (Model 451, GraLab, Centerville, Ohio, USA). […] In the experimental setup, the power of blue light at the specimen was 1.7 mW, measured by a power meter (PM100D, ThorLabs, Newton, N.J., USA). […]

Molecule | reporter EGFP gene expression level [1] | EGFP expression [2] | light-induced gene expression [3] | background (baseline) gene expression level [3] | EGFP signals [4]
NC1=N[C@H](O)[C@H]2[C@H]3O[C@]4(O)O[C@@H]([C@@H](O)[C@@]2(N1)[C@@H]4O)[C@]3(O)CO [TTX, tetrodotoxin] | kept low | – | – | – | –
CN1CCc2cc3c(cc2[C@H]1[C@@H]1OC(=O)c2c1ccc1c2OCO1)OCO3 [bicuculine] | – | significant increase | – | – | –
BLITz-1: AsLOV2 Jα-helix C-terminal deletion variant with inserted TEV cleavage sequence, in TM-CIBN-TEV-N-AsLOV2-TEVseq-tTA fusion protein (protein, BLITz-1 AsLOV2 (1-139 A.A.)) EFLATTLERIEKNFVITDPRLPDNPIIFASDSFLQLTEYSREEILGRNCRFLQGPETDRATVRKIRDAIDNQTEVTVQLINYTKSGKKFWNVFHLQPMRDYKGDVQYFIGVQLDGTERLHGAAEREAVCLIKKTAFQIA | – | – | high | completely abolished | detected only when blue light was illuminated
BLITz-6: AsLOV2 Jα-helix C-terminal deletion variant with TEVseq; selected for the neuromodulation mapping system (protein, BLITz-6 AsLOV2 (1-138 A.A.)) EFLATTLERIEKNFVITDPRLPDNPIIFASDSFLQLTEYSREEILGRNCRFLQGPETDRATVRKIRDAIDNQTEVTVQLINYTKSGKKFWNVFHLQPMRDYKGDVQYFIGVQLDGTERLHGAAEREAVCLIKKTAFQI | – | – | high | completely abolished | detected only when blue light was illuminated
